Measured values as given in the DeepSol protein solubility set.

Experiment: soluble on expression in E. coli; label from the status in PepcDB or PDB records

Row | Sequence | soluble on expression in E. coli
1 | MMFSLSKELEEYRAKIREYAQKTVREYAKQMDETNDGGDKIVKDLGEMGLLGMKQPTKYGGLGLGEMAFAIATEELGAESGGASHSLHTQQNALQLLVSVGGDSAQEWIEKGIKAKEVYAVALTEPQAGSDLGALQTTAKPDGNELVLNGEKIFTSAASFSTKMVVLARTSGNPGDRQGISLLLIDSKLPGIEIHKLDIMGIRGAGVSYVKFNNVRIPKDSIIGKEGDAYRGALKALMVSRNGYAGIAVGIARGALEEAISRAQSRKQFGKALIEQEWISFNLADAYIKVEAARLLTWRAAQLFDNDYEATTEASMAKYYAAVTATEVTRLALHIFGGHGLNRGSKVERLYRDAKIMEIAEGTNEMQLVAVSRLFQPKK | soluble
2 | MMHMDESRKEIIREEAKRAKAIAVEKYKAGDFAGAKEFALKAKQINPALGGLRRLNALLDVCMGFQKQVNGEVDWYDVLAVERTADFITIFNRYSTLAIDISLDRDESVGSGVKEALKILTDASKYFLERRELLPSRRVSGPINQLSRISCEGSKQKEPPPTNLLHVSKLTRMSEDAEIRHDISPNRLRSALARKATSVIKLSLETFVCSSPHNNVGAAEETDNKVMEE | soluble
3 | MMHYDGMYYINEEEVRSNLTMKDTIDAIREAFEEYRAGRASSNTRVRTFSEGSVLNTMPASMEKYHILGHKTYSASRNGARFVVTLFDSRNNDLIAIVEANRLGQMRTGAVTAYATSILHPHVENFTIIGSGFQAETQLEGMITVSHPQSIRVYSRNYDHAKDFASRMSKQFGVDIRPVDNAEAALSDADTVSSITNSTSPVILRKYLGDEYHVNLAGSNYMNRREAEYEVLHDADLVVTEHYDQSMVESAEISEYVKFGGKPVELREIAGRYGEFSGLRRTVFKSMGIGLEDIATAYRVLRNLGIA | soluble
4 | MMIIVGVDAGGTKTKAVAYDCEGNFIGEGSSGPGNYHNVGLTRAIENIKEAVKIAAKGEADVVGMGVAGLDSKFDWENFTPLASLIAPKVIIQHDGVIALFAETLGEPGVVVIAGTGSVVEGYNGKEFLRVGGRGWLLSDDGSAYWVGRKALRKVLKMMDGLENKTILYNKVLKTINVKDLDELVMWSYTSSCQIDLVASIAKAVDEAANEGDTVAMDILKQGAELLASQAVYLARKIGTNKVYLKGGMFRSNIYHKFFTLYLEKEGIISDLGKRSPEIGAVILAYKEVGCDIKKLISD | soluble
5 | MMKKPLLVLTALSLSLSAILSPLPATAALPLSVNGEQIPSLAPMLEKVTPAVVSIAVEGTQVSRQRLPDQFRFFFGPDFPTEQLQERPFRGLGSGVIINADKGYVVTNYHVINGAEKIRVKLYDGREFDAELVGGDEMSDVALLKLNKAKNLTEIRIADSDKLRVGDFAVAIGNPFGLGQTVTSGIVSALGRSGLNIENFENFIQTDAAINSGNSGGALVNLNGELIGINTAILGPNGGNVGIGFAIPSNMMKNLTDQILEFGEVKRGMLGVQGGEITSELADALGYESSKGAFVSQVVPDSAADKAGIKAGDIITSLNGKKIDTFSELRAKVATLGAGKTITLGVLRDGKNQNIDVTLGEQQNAKTKAESLHQGLSGAELSNTTDSDPIQGVKVTEVQKGSAAESYQLQKDDIIIGVNRKRVKNIAELRAIMEKSPNILALNIQRGERTLYLVVR | not soluble
6 | MMKLKVYADRMSQPSRAVIIFCKVNGIQFDEVLISLAKRQQLSPEFKDINPLGKVPAIVDGRLKLFESHAILIYLSSAFPSVADHWYPNDLSKRAKIHSVLDWHHTNLRRGAAGYVLNSVLGPALGLPLNPKAAAEAEQLLTKSLSTLETFWLKGNAKFLLGSNQPSIADLSLVCELMQLQVLDDKDRLRLLSTHKKVEQWIENTKKATMPHFDETHEILFKVKEGFQKRREMGTLSKPGLQSKI | soluble
7 | MMLHAQHMPGQPGTPSLVFLHGFSGDCHEWQPVGEQFHGCSRLYIDLPGHGGSAAIPVDGFADVIRLLRATLISYNILKFWLVGYSLGGRVAMMAACQGIPGLCGLVVEGGHPGLQNEQARAERRLSDGRWAERFRHEPLTEVFHDWYQQPVFASLTAQQRQALTALRSQNNGETLAAMLEATSLAVQPDLREALNALAFPFYYLCGERDSKFRALAQEVAATCHVIRNAGHNAHRENPAGVVDSLAQILRL | not soluble
8 | MMMKSLLMTPLSHRVLKLFCRQTDQRFQKQKNALQQVQREKLQQILKISTLAQAAGVTDYEQFRQQFPVTRYTHWRDRIHECRAQQSTLSNSKLVRYQPTSGSSEQIKFIPYTQAFLDELDAAIAPWLSSMYRKCSTLGQGTHYWSVSWLPESQREVLKNENLNDDSALLGVGKRLLSKFTQTVPSDVSFAAHADDALFATLCYLVADQDLAMISVWSPTFALQLLEKLTEQSHEIALVLETGQWQTRAASLKGVKAPYNSARASLLRQLMKKDTLDYQQLWPKLSLVSSWDTAGSKQWAQLLQSELPFAQFEGKGLWATEGVVTIPYDDLYPLAYHSHFYEFEYLAGEHQGDIIPSWQLKLNDLVSPVLTSGNGLLRYCLDDCLRVTGFYGQVPCFEFQGRRFGVDLVGEKLSPEVAHKLLTRLNQQHIQAISLFAVDTQQQAKPFYAVLVEGEATSPLSVDEIDQALREHFHYELARDLGQLDQPQIFYVDNGWEGYKQVVVREGMIEGNIKPEPLKKVTLSSLEQLSCAESV | not soluble
9 | MMNYELMTTQNAPVKMWTKGVPVEDDARQQLINTAKMPFIFKHIAVMPDVHLGKGSTIGSVIPTKGAIIPAAVGVDIGCGMNALRTSLTAADLPENLADLRSAIEAAVPHGRTTGRGHRDVGAWGNPPANVNEKWAQLEAGYQWLTQKYPRFLNTNNYKHLGTLGTGNHFIEICLDETDRVWIMLHSGSRGIGNAIGTYFIGLAQQEMQEQLETLPSRDLAYFNEGSEYFDDYLKAVHWAQQFASLNREAMMENALAALQRCVEKPSALDMDEINCHHNYVQKEQHFGEEIYVTRKGAVSARRGEFGIIPGSMGAKSFIVRGLGNEESFCSCSHGAGRVMSRTKAKKLFSVDDQIRATAHVECRKDADVIDEIPMAYKDIDAVMAAQSDLVEIMYALRQVVCVKGLEHHHHHH | not soluble
10 | MMPAHETYDVIVVGAGAGGMTAAAVAAAEGLSVLVIEKTAFVGGTTAWSDGMVWIPANPKMKAAGLSDSVADAVQYLSSTVPEPANAGLRAAFLARGPEAVTYLEAKTEVRFLPVKTCPDYYPERLGATSGGRALEPVAFDGTRLGRAFARLRPPLPEFTLFGGMMVNRLDIPHLRRIGKSLRSTLRAARLVSEYMMQRLRSPRGTTLHLGNALAARLYASLLARQGEILFSADVEDLSMQGDRVSGVVIRHGSRDRAIAARRGVVLATGGFSHDAALRKRFFPPAAGFVSATSPSGTGDGLRLAATAGAALNTEATSPAYWVPASLFRRADGSRGVFPHTVTDRAKPGVIAVNAAGRRFVNEALSYHEFVLAMLRDGHGEPDRPFYLICDRQFLWSYGLGRIKPFTRNFRRYVASGELVEAPDITQLAAKIGIKPSVLTATIAAYNIDAKEGRDPEFGRGTTIYQRHLGDISHKPNPCVAPILRAPYFALRIYPADLGTAIGMKVDAQARVLRGDGTPIAGLYACGNDMGSIMNGNCPGPGITLGPALTFGYIAGRHLAEGGVTRELAKEQMLEHHHHHH | not soluble
11 | MMPLSTPDFASIRDTLLRDLQNLRADADIAPDSDYFVRASSVASAVEGLYQHQSWIARQIFPDTADSEYLEQHARLRGIVRKPAAAASGTLRISGNAGAVVSGSLQLRIGEQLYATPAANPDGSPYAARLDANGQAELPIFASQAGAAGNQPESLPVELMQAPSGVSAKALLLSMRNGVDVEDDAALLDRLLELIRRPPAGGNRHDYRRWAMEVKGVSAAYVYPLRRGLGTVDVVITANGDLPSQEILNNVQAHIEDLRPVTAKSCLVLAPTPRPVDIDVALNLGGANLDAFTPLLQQTLQAYFAGLAPGERLVKSRIEALISDLPGVQDRQLNSPAGNVDPVSDPTKVEWLRLGKLTVGLLKLEHHHHHH | soluble
12 | MMQEETFYSVRMRASMNGSHEDGGKHISGGERLIPFHEMKHTVNALLEKGLSHSRGKPDFMQIQFEEVHESIKTIQPLPVHTNEVSCPEEGQKLARLLLEKEGVSRDVIEKAYEQIPEWSDVRGAVLFDIHTGKRMDQTKEKGVRVSRMDWPDANFEKWALHSHVPAHSRIKEALALASKVSRHPAVVAELCWSDDPDYITGYVAGKKMGYQRITAMKEYGTEEGCRVFFIDGSNDVNTYIHDLEKQPILIEWEEDHDS | not soluble
13 | MMQIRPVSDLRNKFSEIENIIISNKSPVFLTKNGHGSMVLMSLDMYESLTDNVENRLDEADFQAASTNVRLSHKDVFSDIRSKI | not soluble
14 | MMQPLQLSAGGFAVVLGTNEIASAVAVHLHREGCCVVMSHDPFPPVIRRKMAFHDALYGDEVTVEGVRGERVDHATQIFKALRRSDNVLVSWLALPDLLPIGAVDVLIDARMQKHRVTPDLRGLARISVGLGPGFSTAVNCDVAIETRPGRSGLIVGAGWTDAADGVASPLGGVGAERFEYSQASGRWRTAVEIGSRVFSGFTIGHLGGVPVRAPCDGILRGVVRDGQDVPQGVKLLEVDSRGRHAQWTGIDDRGRGIAKAVLRAVQPQAEIRTSYAAQPIAVFLEHHHHHH | not soluble
15 | MMRKVALFGFSLLLLAGCSSSDSSLPLFSSLPKGVTLVEEVKAEPGKVMIPYSKYRLDNGLTVILSPDDSDPLVHVDVTYHVGSAREEIGKSGFAHFFEHMMFQGSKHVGDQQHFRLITEAGGSLNGTTNRDRTNYFETVPANQLEKMLWLEADRMGFLLDAVSQRKFEIQRDTVKNERAQNYDNRPYGLMWEKMGEALYPEGHPYSWQTIGYVSDLDRVDVNDLKAFFLRWYGPNNAVLTIGGDLDVKQTLAWVQKYFGSIPKGPDVVDAPKQPARLSEDRFITLEDRVQQPMLLIGWPTQYWGAEDQVALDALASALGSGNNSLLYQELVKTQKAVDAGAFQDCAELACTFYVYAMAPSGAKGKLAPLYQETLQVLEKFKQQGVSASRLEQIIGSEEASAVFALESVKGKVSQLAANQTFFDQPDRIESQLEKIRAVTPESVKQVFTRYLDGQPKVTLSVVAKGKTDFAVRPATFITPERQLPEYQKIGDEQLAYREVKDSFDRSQMPQVAQAVQPRLPKLYDVYFDNGVQLLGTQTRETPTVLIEIQLPAGERQVAMGKEGLANLTASLLQEGSQNRSAEAIQAQLDKLGSSIQVVAGAYSTSIVVSSLKKNLPETLQISQEMLLKPAFKQSDFARLQQQMLQGVVYQHQQPSWLASQATRQVLWGESLFARSGDGTQASISALTLKDVKQFYRQHYTPHGAQIAVVGDISAREIRQQLQFIADWKGEAAPLINPQVVPTLTKQKIYLVDKPGAPQSIIRMVRKGLPFDATGELYLTQLANFNLAGNFNSRINQNLREDKGYTYGAGSYFASNREIGAIVFNAPVRADVTVEAIQEMIKEMHHFSQAGMSEEEMKFLRLAVGQQDALMYETPAQKAQLVSSILTYSLDRDYLQQRNEIVKSVDRSTLNELAAKWFNPEDYQIIVVGDAKRLKPQLEKLGIPLEELEIIR | not soluble
16 | MMSAVERRMEIVNVVNQDGKARVEDLAARFDVSSVTIRSDLSFLEKNGYVVRSHGAAIPNTGVIAELTVHEKRHQNIGTKSSIGYAAAQLIENGDTVILDSGTTTREIASNLKSLEQAVVMTNGLDVAMELASASGIEVLMSGGVLRKKALSFSGSQAEASLKNYRFDKVFLGVDGFDLRSGITTHNEQEASLNRLMCDISEQVIAVADSTKFGKRSCHMIREFGNIDILVTDSDIPEEYLQGLREMKVEVIIVEKEK | not soluble
17 | MMSNRSDFIVPDEAAVKRAASVNFHLEPLRPWLDDPQITEVCVNRPGEVFCERASAWEYYAVPNLDYEHLISLGTATARFVDQDISDSRPVLSAILPMGERIQIVRPPACEHGTISVTIRKPSFTRRTLEDYAQQGFFKHVRPMSKSLTPFEQELLALKEAGDYMSFLRRAVQLERVIVVAGETGSGKTTLMKALMQEIPFDQRLITIEDVPELFLPDHPNHVHLFYPSEAKEEENAPVTAATLLRSCLRMKPTRILLAELRGGEAYDFINVAASGHGGSITSCHAGSCELTFERLALMVLQNRQGRQLPYEIIRRLLYLVVDVVVHVHNGVHDGTGRHISEVWYDPNTKRALSLQHSEKT | soluble
